# Reference: patent publication US20200017877
# Legend:
# Test in all cases: cell_activity
# [1] = test system: ssKissR3.2 left TALEN; details: pair
# [2] = test system: Kiss1.1a (tilapia) right TALEN; details: pair, tilapia Kiss20; range 48-91; Kiss1.1a locus
# [3] = test system: caCLPG1.1 right TALEN; details: pair; 0/14 colonies confirmed (Table 6)
# [4] = test system: caFecB6.1 left TALEN; details: pair
# [5] = test system: btRosa1.2 right TALEN; details: pair
# [6] = test system: caFecB6.1 right TALEN; details: pair
# [7] = test system: Kiss1.1a (tilapia) left TALEN; details: pair, tilapia Kiss20; range 48-91; Kiss1.1a locus
# [8] = test system: ssP65.8 left TALEN; details: pair
# [9] = test system: btGDF83.1 left TALEN; details: pair, cattle fibroblasts
# [10] = test system: ssDAZL3.1 left TALEN; details: pair
# [11] = test system: ssLDLR2.1 right TALEN; details: pair LDLRE2.1, pig male fibroblasts
# [12] = test system: ssEIF4GI14.1 right TALEN; details: pair
# [13] = test system: ssGDF83.6 left TALEN; details: pair, 3/90
# [14] = test system: ssLDLR2.1 left TALEN; details: pair LDLRE2.1, pig male fibroblasts
# [15] = test system: caCLPG1.1 left TALEN; details: pair caCLPG1.1
# [16] = test system: ssRAG2.1 right TALEN; details: pair
# [17] = test system: btGDF83.6-G left TALEN; details: pair, listed as btGDF83.6N
# [18] = test system: ssEIF4GI14.1 left TALEN; details: pair
# [19] = test system: ssSRY3.2 left TALEN; details: pair
# [20] = test system: ssTp53 left TALEN; details: pair
# [21] = test system: ssRAG2.1 left TALEN; details: pair
# [22] = test system: ssP65.8 right TALEN; details: pair
# [23] = test system: btGDF83.6 right TALEN; details: pair, listed as btGDF83.6N
# [24] = test system: btACAN12 left TALEN; details: pair, cattle fibroblasts
# [25] = test system: btACAN12 right TALEN; details: pair, cattle fibroblasts
# [26] = test system: ssGDF83.6 right TALEN; details: pair, 3/90
# [27] = test system: btRosa1.2 left TALEN; details: pair
# [28] = test system: ssDMDE6 left TALEN; details: pair, pig fibroblasts
# [29] = test system: ssDMDE6 right TALEN; details: pair, pig fibroblasts
# [30] = test system: btGDF83.1 right TALEN; details: pair, cattle fibroblasts
# [31] = test system: ssSRY3.2 right TALEN; details: pair
# [32] = test system: ssKissR3.2 right TALEN; details: pair
# [33] = test system: ssAPC14.2 right TALEN; details: pair
# [34] = test system: ssAPC14.2 left TALEN; details: pair
# [35] = test system: ssDMDE7.1 left TALEN; details: pair, pig fibroblasts
# [36] = test system: ssDMDE7.1 right TALEN; details: pair, pig fibroblasts
# [37] = test system: ssDAZL3.1 right TALEN; details: pair
# [38] = test system: ssTp53 right TALEN; details: pair
sequence,measurement,setting,value
GCTCTACTCTACCCC (double strand) [KissR3.2 left half-site],activity,[1],53 % HDR day 3
ACAATGGCTACATTTAC (double strand) [Kiss1.1a right half-site (sense strand)],activity (% mosaic somatic mutation),[2],91
GCTGGGACCACCTGTCAG (double strand) [CLPG1.1 right half-site (sense strand)],activity,[3],4 % HDR day 3
ACAGAGGAGGCCAGCTGGTT (double strand) [FecB6.1 left half-site],activity,[4],17 % HDR day 3
AGGTAGGGTGGAGAGAG (double strand) [Rosa1.2 right half-site (sense strand)],activity,[5],45 % HDR day 3
ATATCAGACGGTGTTGATG (double strand) [FecB6.1 right half-site (sense strand)],activity,[6],17 % HDR day 3
ACAACCCTCTCAGCCTT (double strand) [Kiss1.1a left half-site],activity (% mosaic somatic mutation),[7],91
CTCCTCCATTGCGGA (double strand) [P65.8 left half-site],activity,[8],18 % HDR day 3
GTGATGAACACTCCACAGAATCT (double strand) [GDF83.1 left half-site],activity (% modified day 3),[9],17
GGATGAAACCGAAATT (double strand) [DAZL3.1 left half-site],activity,[10],25 % HDR day 3
AGTGCAAGGACGGGTCCG (double strand) [LDLR2.1 right half-site (sense strand)],activity (% modified day 3),[11],19
AGCAACCGTGGGCCCCCA (double strand) [EIF4GI14.1 right half-site (sense strand)],activity,[12],52 % HDR day 3
ACTGCTCTGGAGAGT (double strand) [ssGDF83.6 left half-site],activity (% HDR+ colonies),[13],3
CTCCTACAAGTGGATTT (double strand) [LDLR2.1 left half-site],activity (% modified day 3),[14],19
GAGAGCGCAGGAATCCAGG (double strand) [CLPG1.1 left half-site],activity,[15],4 % HDR day 3
ATTCAAAAGCAGCTTAG (double strand) [RAG2.1 right half-site (sense strand)],activity,[16],47 % HDR day 3
GCTCTGGAGAATGT (double strand) [GDF83.6-G left half-site],activity,[17],18 % HDR day 3
CCGTCCTTTGCCAACCTT (double strand) [EIF4GI14.1 left half-site],activity,[18],52 % HDR day 3
ATACATTTTACACACATAT (double strand) [SRY3.2 left half-site],activity,[19],30 % HDR day 3
GGCACCCGTGTCCGCGC (double strand) [Tp53 left half-site],activity,[20],22 % HDR day 3
ACCTTCCTCCTCTCCGCT (double strand) [RAG2.1 left half-site],activity,[21],47 % HDR day 3
CTTCTGAGTCAGATC (double strand) [P65.8 right half-site (sense strand)],activity,[22],18 % HDR day 3
AAAAGTATCCTCAT (double strand) [GDF83.6 right half-site (sense strand)],activity,[23],18 % HDR day 3
CCCTCTTCCTTTCCTCCAGGGATCCCTCCTACATGGCCTCCCACTGGAGAAGCAACAGAGGAGCACACAGA (double strand) [ACAN12 target],activity (% modified day 3),[24],29
same,activity (% modified day 3),[25],29
ACAAAAATACCCTCAC (double strand) [ssGDF83.6 right half-site (sense strand)],activity (% HDR+ colonies),[26],3
CTCGCATTGCCCACT (double strand) [Rosa1.2 left half-site],activity,[27],45 % HDR day 3
TCTATACCTAGGTCAAAAATGTAATGAAGAAAGTATCAGTTAGGCATAGAGAAACTACTGGA (double strand) [DMD exon 6 target],activity (% modified day 3),[28],25
same,activity (% modified day 3),[29],25
CTCTAACTGTGGATTTTGA (double strand) [GDF83.1 right half-site (sense strand)],activity (% modified day 3),[30],17
ATTAATGGCCTGAACCT (double strand) [SRY3.2 right half-site (sense strand)],activity,[31],30 % HDR day 3
TGGGCGACTTCATGTGC (double strand) [KissR3.2 right half-site (sense strand)],activity,[32],53 % HDR day 3
ACAGAAATTCTGGGTC (double strand) [APC14.2 right half-site (sense strand)],activity,[33],48 % HDR day 3
GGAAGAAGTATCAGCCAT (double strand) [APC14.2 left half-site],activity,[34],48 % HDR day 3
GCCACACAACGACTGGAACATGCATTCAACATCGCCAAGTATCAGTTAGGCATAGAGAAACTACTGGATCCTGAAGGTT (double strand) [DMD exon 7 target],activity (% modified day 3),[35],27
same,activity (% modified day 3),[36],27
ATATGGTTCAGTAAAAG (double strand) [DAZL3.1 right half-site (sense strand)],activity,[37],25 % HDR day 3
AAGTCAGAGTACATG (double strand) [Tp53 right half-site (sense strand)],activity,[38],22 % HDR day 3
